This note sets out measurements from the supplement of paper PMC12042874.

± gives the uncertainty stated by the source.

The series is described as follows: amyloid nucleation score (Sup35N fusion, yeast selection) (log enrichment); library NNK3; higher = more nucleation; inactive = no reads after selection. The method, boiled down:
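DiMSum was used to calculate nucleation scores as log enrichment of output over input reads, centred on the mode score of non-aggregating sequences. Sequences with fewer than 100 input reads were not scored. Input and output came from Illumina sequencing of plasmid inserts in psi-negative yeast expressing peptides of 20 random codons fused to Sup35N, induced 24 hours with 100 μM copper sulfate and then grown 7 days at 30°C on medium lacking adenine and uracil.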

Regarding WILFCKNGAVTNLLVWECLC, the amyloid nucleation score entry is “inactive”.
With FGLNSCTSYKYQLSMSGFST, the amyloid nucleation score was -0.491 ± 0.66.
With SIGVRTRLKLCC the entry was “inactive”; with PSCMSDCISIIYS, “inactive”.
With GTGEGNDLCARQNPLHQRII the entry was “inactive”; with YSIKNGYGFRQSWYKQVLKL, “inactive”.
With MTPGFCLPK the entry was “inactive”; with RCIVSRLTWGTILISFLQNR, “inactive”.
As for DDKRTENG, the amyloid nucleation score entry is “inactive”.
AVATCP: the amyloid nucleation score entry was “inactive”.
With SAIYLYKYCPSNIITRTLVP, the amyloid nucleation score entry was “inactive”.
To KLGKESRSFLMTTRNVDRRF belongs 1.43 ± 0.11.
With WVLLKSWQNCLLGELVSEVQ the entry was “inactive”.
With MVLDDYIRKGG the figure was 0.073 ± 0.33; with SKGLCPVWIVLYKACHSMIF, “inactive”.
Turning to RILCRVRYM, the amyloid nucleation score entry is “inactive”.
FGSCSEVFSYVAYLRGINDF: the amyloid nucleation score entry was “inactive”.
On to LILAMSRLALWSL, for which the amyloid nucleation score entry was “inactive”.
With YCVLLRCNFFRSL, the amyloid nucleation score entry was “inactive”.
With NGVCTVNVTFCYMV the figure was 2.23 ± 0.058.
Take FLPDKGYTWKGTLWRWESNN: the amyloid nucleation score entry was “inactive”.
With AEVHDDHPMGSDAHIYGTGG the entry was “inactive”.
To KTASRCLYCLMKKKDCLPRV belongs “inactive”; to HSYTVWLVNMS, 2.35 ± 0.077; to MAMLS, “inactive”.
For the substance CRLRGKLIYLLIMDGTKE, the amyloid nucleation score result is “inactive”.
On to KSCLGKRLISSFC, for which the amyloid nucleation score entry was “inactive”.
In the case of WLHRTKLWPYFYVKLFPRDK, the amyloid nucleation score result is “inactive”.
As to PGTIYVGCRLLIYGTNTADL, the amyloid nucleation score result is “inactive”.
FYVNINFSELVSVDTISSFI: the amyloid nucleation score worked out at 0.208 ± 0.31.
For the substance ANSYLTYN, the amyloid nucleation score entry was “inactive”.
As for LNFWTIAWARWRIFLCSVLQ, the amyloid nucleation score entry is “inactive”.
Regarding CLCVTAGYISNTGGHRSWII, the amyloid nucleation score entry was “inactive”.
Regarding FFETRKYCGKEWFSGMLDMQ, the amyloid nucleation score entry is “inactive”.
With IIRVGMLWVGKLLRRSWGEQ the entry was “inactive”; with NENPDNYLRIAVWTTFFSFC, 1.57 ± 0.095; with YLDKCIVVCFRVRNSNSFWL, 2.42 ± 0.065.
To CIGWRIM belongs “inactive”; to RMYWAV, 1.02 ± 0.19.
To GECPRQRVSLM belongs “inactive”; to TDRFNAFSWAVASGFVDFDG, “inactive”; to ELNRDDCEGSSATPQRDFNV, “inactive”.
On to ILVLDSWYVACTTACKGTNK, for which the amyloid nucleation score was -1.57 ± 2.5.
To NNVFERQFRHLNSVDGPIDN belongs “inactive”.
In the case of PGMISSQGSYTFRAWAVSLR, the amyloid nucleation score entry is “inactive”.
Regarding YFMVINR, the amyloid nucleation score turned out to be 1.98 ± 0.071.
To HFYYPLCWVCSVLLSHLVPD belongs “inactive”; to ILWLLILTFLNRRARCIEQN, -0.567 ± 0.51.
In the case of SIDNLSPRPTWSGIMFSHCL, the amyloid nucleation score result is “inactive”.
With KCAQEYGEVLS the figure was -0.591 ± 0.8; with PFCVCRLL, “inactive”.
As to PKCPCTWSRTYCVVLWLPRR, the amyloid nucleation score entry was “inactive”.
As to SEYMNLYTVTTHRTPS, the amyloid nucleation score result was “inactive”.
In the case of RLLLSGSSVAICCGQLGLGF, the amyloid nucleation score stood at 2.11 ± 0.097.
Regarding GIFVGPSVDSLLKLRARSHY, the amyloid nucleation score entry is “inactive”.
With LGESMGRHVKRNKSAPERGM the entry was “inactive”.
Consider VVNILW, for which the amyloid nucleation score came to 1.82 ± 0.1.
For the substance PVGKMDLRIDKNSWSYLVLD, the amyloid nucleation score entry was “inactive”.
Consider ALFSLSWLNQRDSIWVKSDQ, for which the amyloid nucleation score result is “inactive”.
To FYVSSTP belongs “inactive”; to GDVNCLNTVTLKNNKTRGHI, “inactive”.
To FSEIVDYRGGIYGSYLNESM belongs “inactive”; to LKCDWC, “inactive”; to IVHCWLMSGASVWTLQETPN, -0.105 ± 1.4.
The substance SCHFYTML showed an amyloid nucleation score of 0.237 ± 0.65.
For the substance KIGQSFSV, the amyloid nucleation score result was “inactive”.
Regarding RCRDGTILALC, the amyloid nucleation score entry is “inactive”.
As to TRCGFS, the amyloid nucleation score result was “inactive”.
With VLPCVMYNIHPQITCRR the entry was “inactive”; with VRTLPDLLPINRKQMVKERM, “inactive”; with AAPMS, “inactive”.
To FPHGVHPYS belongs “inactive”; to NRENFMVTLLSLWTCNTCQV, 2.46 ± 0.054.
With RPGVC the entry was “inactive”; with LLTNLCIQYISSTLYYDRLF, “inactive”; with AIKLC, “inactive”.
Regarding FCCLEWNFIFNTSGHVSNNV, the amyloid nucleation score is 3.31 ± 0.079.
In turn, MGPSVMFCIDLSSWKHLIRL gave an amyloid nucleation score of 0.87 ± 0.16.
WSSFPFCSRVYVQTWIDLTN returned an amyloid nucleation score of 1.52 ± 0.14.
Regarding VWVTVRCLNYRPSYMPYRTR, the amyloid nucleation score is 0.651 ± 0.32.
As for RMGYFSCQVRYSRFLTIPSR, the amyloid nucleation score result was “inactive”.
To DISIGQRVRCTIFSGIGPLT belongs -0.913 ± 2.5; to DLNDGWGWKRLTFQSVRCGE, “inactive”; to HSSIVWKRYSIYFVKNGGTF, “inactive”.
As to FLHILGHVNLFTSLREDLSL, the amyloid nucleation score result was “inactive”.
Regarding CMSPYWML, the amyloid nucleation score result was “inactive”.
To EYADTEKVASNVLFFSRLAG belongs “inactive”; to KNLKSVSFGRRYAFNSFVFL, 1.25 ± 0.11.
For the substance WTRMCSSVRTVR, the amyloid nucleation score result was “inactive”.
Regarding YIHIGAM, the amyloid nucleation score result is “inactive”.
RSERVRNSKLTVCVIYKYIK: the amyloid nucleation score entry was “inactive”.
With LLHTTLA the entry was “inactive”; with GNEIGITGVYGLHRSAKVVV, “inactive”.
With IARKQPLLSMATTSSQVFRA the entry was “inactive”; with RTSYNTFGGFYTNGWTLILR, “inactive”; with GNVILCFMLNYSMISGNDM, 0.956 ± 0.17.
With PGSASYSLVRGQDYYLTIYC the entry was “inactive”; with CKCVNLQFAVTIHCGGFVPF, 2.52 ± 0.072.
Turning to CFMSNIDIFLDRCMRKGCNH, the amyloid nucleation score was 2.08 ± 0.072.
With AEIVCICV the figure was 1.11 ± 0.17; with DIPAVINVMGSVYDGR, “inactive”; with LHCLEFSCVRHSVRY, 2.14 ± 0.073.
Turning to RFMFSLFMNEGNMLHMLRRV, the amyloid nucleation score entry was “inactive”.
With VLYGTSASWSEFEFDHVIHV the entry was “inactive”; with VSSFWFCLS, “inactive”; with LVWYKSDLISIVRHTVDSCC, “inactive”.
Turning to NTYVIVPWKLLTNFDEFPHR, the amyloid nucleation score entry was “inactive”.
For FNPKSWKVTKLYFKMYNRLD, the amyloid nucleation score result was “inactive”.
Regarding YDMVLRSHATVAYSHYGFDM, the amyloid nucleation score result is “inactive”.
With ACKSGHLNSHKNGYYV the entry was “inactive”; with IYGTANSKFSCIIYR, 2.09 ± 0.091; with YCLRSSTGSEVRQWDDDSFK, “inactive”.
As to YIKRTIFTYYYRERMIADSY, the amyloid nucleation score entry is “inactive”.
As to SLHVSTAFVFDIVLSNYLPV, the amyloid nucleation score entry is “inactive”.
With KAPRMVLLRSGIVMLAHSEN the entry was “inactive”; with FDVELALWC, “inactive”; with QHNLRDGMFLNGTYRNDAVR, “inactive”.
For the substance VKLKNLSCKRLLRRHSACHR, the amyloid nucleation score entry is “inactive”.
To MFKITACIFNIAYSSWFFST belongs “inactive”; to GTVSSYLRTHSKVFSRRFRD, “inactive”; to TGMVCNLTWVLYLMLMNRTF, “inactive”.
With YAETPRFIRFY the figure was -0.137 ± 0.78; with AGPKALIVMPKICDGDIWME, “inactive”; with RKEVEGGVPALYDDMRIFES, “inactive”.
To LGWLVGSGKVNRVRPGSLNS belongs “inactive”; to QIHNRTMPCWRSKATVLGKT, “inactive”; to CDRLYSNLLRVAAMAPKASW, “inactive”.
On to PWGEILINGR, for which the amyloid nucleation score entry is “inactive”.
As for SVSLLLRFVILLCTFVQYGW, the amyloid nucleation score entry was “inactive”.
With VRVTLWYQTNMGIFEGHSRN, the amyloid nucleation score result is “inactive”.
With LVNLAELDFVECCLENKMQW the entry was “inactive”; with SRRFYLYYFCWYSVVMFIHG, “inactive”.
